These results are taken from patent US20250042970A1.

The target in assay [1] is human APRIL (Acros Biosystems) (human) (UniProt O75888). Kind of assay: cell-based or functional assay.
For assay [2], the target named is human BAFF (Acros Biosystems) (human) (UniProt Q9Y275). As to the kind of experiment: cell-based or functional assay.
The target of assay [3] is human BAFF-60mer (Adipogen) (human) (UniProt Q9Y275). As to the kind of experiment: cell-based or functional assay.
For assay [4], the target named is human APRIL (Examples 21-23) (human) (UniProt O75888). As to the kind of experiment: assay not given (Example 21).
human APRIL (Examples 21-23) (human), sequence (O75888 105-250 limits assumed): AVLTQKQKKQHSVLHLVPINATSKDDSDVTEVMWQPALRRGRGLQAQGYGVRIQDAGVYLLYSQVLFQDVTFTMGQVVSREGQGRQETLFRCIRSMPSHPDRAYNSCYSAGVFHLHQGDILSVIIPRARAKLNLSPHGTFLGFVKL
Assay [5] deals with human BAFF (Examples 21-23) (human) (UniProt Q9Y275). As to the kind of experiment: assay not given (Example 21).
The target in assay [6] is human APRIL (Examples 21-23) (human) (UniProt O75888). As to the kind of experiment: SPR (Carterra LSA, HC30M chip).
The target in assay [7] is human BAFF (Examples 21-23) (human) (UniProt Q9Y275). As to the kind of experiment: SPR (Carterra LSA, HC30M chip).
For assay [8], the target named is murine APRIL (Examples 22-23) (mouse) (UniProt Q9D777). Kind of assay: SPR (Carterra LSA, HC30M chip).
murine APRIL (Examples 22-23) (mouse), sequence (Q9D777 96-241 limits assumed): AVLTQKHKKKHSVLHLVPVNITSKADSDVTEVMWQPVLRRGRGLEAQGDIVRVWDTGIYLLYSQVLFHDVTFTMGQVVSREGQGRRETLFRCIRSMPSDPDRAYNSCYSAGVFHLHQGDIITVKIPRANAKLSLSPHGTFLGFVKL
The target of assay [9] is murine BAFF (Examples 22-23) (mouse) (UniProt Q9WU72). As to the kind of experiment: SPR (Carterra LSA, HC30M chip).
murine BAFF (Examples 22-23) (mouse), sequence (Q9WU72 127-309 limits assumed): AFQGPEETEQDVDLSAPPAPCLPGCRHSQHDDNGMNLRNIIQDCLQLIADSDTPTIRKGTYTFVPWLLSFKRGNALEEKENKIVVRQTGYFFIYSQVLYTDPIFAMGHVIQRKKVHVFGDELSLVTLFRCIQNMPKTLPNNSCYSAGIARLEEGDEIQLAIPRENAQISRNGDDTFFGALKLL
Assay [10] deals with T1, syndecan-1.
T1 sequence (P18827 whole entry, species assumed, looked up): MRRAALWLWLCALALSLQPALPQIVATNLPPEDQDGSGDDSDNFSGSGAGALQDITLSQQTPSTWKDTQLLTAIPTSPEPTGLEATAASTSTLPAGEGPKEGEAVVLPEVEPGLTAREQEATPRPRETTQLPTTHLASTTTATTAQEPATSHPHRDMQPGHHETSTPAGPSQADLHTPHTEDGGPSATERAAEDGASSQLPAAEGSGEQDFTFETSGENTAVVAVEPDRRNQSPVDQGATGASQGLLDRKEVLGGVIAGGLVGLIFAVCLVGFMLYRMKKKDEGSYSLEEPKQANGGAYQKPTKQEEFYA
As to the kind of experiment: colorimetric ELISA, binding curve (450 nm against LogM) on syndecan-1; curve rises to about 0.7 at LogM about -6.7, no plateau. Background: In an ELISA, binding on a coated surface is turned into a signal by an enzyme label.

Assay [11] has as its target syndecan-2. Kind of assay: colorimetric ELISA, binding curve (450 nm against LogM) on syndecan-2; curve rises to about 1.1 at LogM about -6.7, no plateau.
syndecan-2, sequence (P34741 whole entry, the tested form may be a part): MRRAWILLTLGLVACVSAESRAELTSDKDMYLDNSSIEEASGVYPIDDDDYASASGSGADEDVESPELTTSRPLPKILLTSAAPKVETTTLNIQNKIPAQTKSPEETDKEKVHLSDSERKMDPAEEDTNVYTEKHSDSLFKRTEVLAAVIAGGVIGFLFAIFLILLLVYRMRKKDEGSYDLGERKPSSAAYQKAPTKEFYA
Assay [12] addresses human BAFF (Examples 21-23) (human) (UniProt Q9Y275). As to the kind of experiment: colorimetric ELISA, inhibition curve (450 nm against LogM of the fusion protein) for human BAFF; the partner on the plate not given.
Assay [13] deals with murine BAFF (Examples 22-23) (mouse) (UniProt Q9WU72). Kind of assay: colorimetric ELISA, inhibition curve (450 nm against logM of the fusion protein) for mouse BAFF; the partner on the plate not given.
For assay [14], the target named is human APRIL (Examples 21-23) (human) (UniProt O75888). Kind of assay: colorimetric ELISA, inhibition curve (450 nm against LogM of the fusion protein) for human APRIL; the partner on the plate not given.
Assay [15] concerns the target murine APRIL (Examples 22-23) (mouse) (UniProt Q9D777). Kind of assay: colorimetric ELISA, inhibition curve (450 nm against logM of the fusion protein) for mouse APRIL; the partner on the plate not given.
For assay [16], the target named is T1, syndecan-1. As to the kind of experiment: colorimetric ELISA, binding curve (450 nm against LogM) on syndecan-1; curve rises to about 1.8 at LogM about -6.7, no plateau.
Assay [17] concerns the target syndecan-2. Kind of assay: colorimetric ELISA, binding curve (450 nm against LogM) on syndecan-2; curve rises to about 2.4 at LogM about -6.7, no plateau.
Assay [18] addresses FLAG-tagged human BAFF (human) (UniProt Q9Y275). Kind of assay: KinExA.
The target in assay [19] is FLAG-tagged recombinant human APRIL (human) (UniProt O75888). Kind of assay: KinExA.
FLAG-tagged recombinant human APRIL (human), sequence (O75888 105-250 limits assumed): as the sequence (O75888 105-250 limits assumed) above
The target of assay [20] is soluble huBAFF (Example 12) (human) (UniProt Q9Y275).
The target of the next assay is membrane-huBAFF (human) (UniProt Q9Y275).
Assay [21] concerns the target 6HIS-tagged murine BAFF (mouse) (UniProt Q9WU72). As to the kind of experiment: BIACORE SPR. A general note: Surface plasmon resonance follows binding to a sensor surface in real time, without labels.
In assay [22] the target is FLAG-tagged cynomolgous APRIL (cynomolgus monkey). Kind of assay: BIACORE SPR.
FLAG-tagged cynomolgous APRIL (cynomolgus monkey), sequence (A0ACM8 entry or part of it limits assumed): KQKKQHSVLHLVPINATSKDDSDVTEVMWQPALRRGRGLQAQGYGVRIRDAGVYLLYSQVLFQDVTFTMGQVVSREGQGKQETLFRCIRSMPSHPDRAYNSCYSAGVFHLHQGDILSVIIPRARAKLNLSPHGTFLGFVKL
Assay [23] deals with FLAG-tagged human BAFF (human) (UniProt Q9Y275). As to the kind of experiment: BIACORE SPR.
In assay [24] the target is FLAG-tagged murine megaAPRIL (mouse) (UniProt Q9D777). Kind of assay: BIACORE SPR.
Assay [25] addresses FLAG-tagged human BAFF (human) (UniProt Q9Y275). Kind of assay: KinExA. This is another data set of the same source. (Kinetic exclusion samples the free partner from a solution-phase mixture.)
Assay [26] has as its target FLAG-tagged cynomolgous APRIL (cynomolgus monkey). As to the kind of experiment: BIACORE SPR. This is another data set of the same source.
Assay [27] addresses FLAG-tagged human BAFF (human) (UniProt Q9Y275). Kind of assay: BIACORE SPR. The source holds these as a separate data set.
Assay [28] shares this target. As to the kind of experiment: BIACORE SPR; Table 3 experiment (BAv8-10 derivative series), control run.

Where two headings read alike, the source gives them in different places.

human APRIL (Acros Biosystems) (human), sequence (O75888 115-250 limits assumed): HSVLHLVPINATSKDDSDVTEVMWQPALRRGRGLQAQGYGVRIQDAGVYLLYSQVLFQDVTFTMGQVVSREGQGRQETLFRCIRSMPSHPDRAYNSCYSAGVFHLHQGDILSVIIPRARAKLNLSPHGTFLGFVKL
RC18 (Telitacicept) (Fc fusion), sequence (chain): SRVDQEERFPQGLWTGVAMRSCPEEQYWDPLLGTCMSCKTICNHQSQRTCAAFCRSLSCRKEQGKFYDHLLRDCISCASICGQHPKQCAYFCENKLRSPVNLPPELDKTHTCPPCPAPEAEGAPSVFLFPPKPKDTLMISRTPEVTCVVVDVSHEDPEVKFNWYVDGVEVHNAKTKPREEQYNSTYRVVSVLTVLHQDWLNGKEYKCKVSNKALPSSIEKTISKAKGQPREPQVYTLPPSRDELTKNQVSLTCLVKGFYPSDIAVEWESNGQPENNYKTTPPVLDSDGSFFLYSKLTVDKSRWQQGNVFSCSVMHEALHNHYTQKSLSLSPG
6HIS-tagged murine BAFF (mouse), sequence (Q9WU72 127-309 limits assumed): as the sequence (Q9WU72 127-309 limits assumed) above

In the case of Atacicept (Fc fusion), in assay [1], the IC50 for proliferation of stimulated B cells, Donor 1, APRIL + anti-IgM amounted to 3 nM. The IC50 for proliferation of stimulated B cells, Donor 2, APRIL + anti-IgM in [1] turned out to be 0.01 pM. Further, the IC50 for proliferation of stimulated B cells, Donor 3, APRIL + anti-IgM in [1] came to 2.15 nM. Moreover, the IC50 for proliferation of stimulated B cells, Donor 1, BAFF + anti-IgM in [2] was determined as 0.64 nM. Also, the IC50 for proliferation of stimulated B cells, Donor 2, BAFF + anti-IgM in [2] stood at 0.0985 nM. In addition, in [2], the IC50 for proliferation of stimulated B cells, Donor 3, BAFF + anti-IgM stood at 0.379 nM. Also, the IC50 for proliferation of stimulated B cells, Donor 1, BAFF-60mer + anti-IgM in [3] was 2.06 nM. Also, in assay [3], the IC50 for proliferation of stimulated B cells, Donor 2, BAFF-60mer + anti-IgM came out at 0.683 nM. In [3], the IC50 for proliferation of stimulated B cells, Donor 3, BAFF-60mer + anti-IgM is 1.13 nM. In addition, the Kd came to 0.13 nM in assay [4]; 0.15 nM in assay [5]; 0.067 nM in [6]; 0.919 nM in assay [7]; 0.13 nM in [8]; 0.532 nM in assay [9]. Besides, the half-maximal effective concentration (EC50) with syndecan-1 [10] stood at 120 nM; in the assay with syndecan-2 [11], 5400 nM. In addition, the IC50 in assay [12] turned out to be 6.8 nM; in assay [13], 31 nM; in assay [14] it was 3.6 nM; in [15], 212 nM.

For RC18 (Telitacicept) (Fc fusion), in assay [1], the IC50 for proliferation of stimulated B cells, Donor 1, APRIL + anti-IgM is 2.51 nM. The IC50 for proliferation of stimulated B cells, Donor 2, APRIL + anti-IgM in assay [1] was 573 pM. The IC50 for proliferation of stimulated B cells, Donor 3, APRIL + anti-IgM in [1] is 4.14 nM. In addition, the IC50 for proliferation of stimulated B cells, Donor 1, BAFF + anti-IgM in [2] stood at 1.98 nM. Besides, the IC50 for proliferation of stimulated B cells, Donor 2, BAFF + anti-IgM in assay [2] was found to be 0.295 nM. Also, in [2], the IC50 for proliferation of stimulated B cells, Donor 3, BAFF + anti-IgM is 1.05 nM. Further, in assay [3], the IC50 for proliferation of stimulated B cells, Donor 1, BAFF-60mer + anti-IgM was determined as 2.37 nM. Further, in assay [3], the IC50 for proliferation of stimulated B cells, Donor 2, BAFF-60mer + anti-IgM worked out at 0.818 nM. Moreover, in assay [3], the IC50 for proliferation of stimulated B cells, Donor 3, BAFF-60mer + anti-IgM is 1.97 nM. For the same substance, the Kd in assay [6] is 0.082 nM; in assay [7], 0.616 nM; in [9], 0.0023 nM. Besides, the results for the EC50 with syndecan-1 [16] and with syndecan-2 [17] were 160 nM and 70 nM, respectively. Besides, the IC50 came out at 12.4 nM in assay [12], 39 nM in assay [13], 6.7 nM in assay [14] and 236 nM in assay [15].

For “Z-TACI-Ig fusion protein (from UniProt O14836 30-110) (Fc fusion)”, the equilibrium dissociation constant (Kd) in assay [18] amounted to 0.151 nM; in assay [19], 0.131 nM; in assay [21] it was 0.229 nM; in [22], 1.21 nM; in assay [23], 0.0745 nM; in assay [24], 0.421 nM. This substance also returned a Selectivity for huBAFF (KD APRIL/KD BAFF) in assay [18] of 0.9. Moreover, the fold improvement over control in [18] came to 1.5 fold; in [19] it was 0.001 fold. For the same substance, the Selectivity for huAPRIL (KD BAFF/KD APRIL) in [19] was determined as 1.15. This substance showed an IC50 (read off the curve) (NFkappaB luciferase signal of HEK293-huBCMA reporter cells stimulated with soluble huBAFF) in assay [20] of 5 nM. This substance registered an IC50 (read off the curve) (NFkappaB luciferase signal of HEK293-huBCMA reporter cells stimulated with HEK-293 cells expressing membrane huBAFF) in the assay with membrane-huBAFF (human) of 5 nM. The fold improvement KD vs control in assay [22] was 0.01 fold; in [23] it was 1.6 fold.

Regarding “[S40G]huBCMA ECD-Ig fusion protein (from UniProt Q02223 5-54) (Fc fusion)”, the Kd in assay [18] came out at 0.226 nM; in [19], 0.000159 nM; in assay [25], 0.226 nM; in assay [21], 0.0669 nM; in assay [22] it was 0.0151 nM; in assay [23] it was 0.121 nM. In addition, the Kd amounted to 0.0216 nM in assay [24], 0.057 nM in assay [26] and 0.173 nM in [28]. Further, the Selectivity for huBAFF (KD APRIL/KD BAFF) in [18] amounted to 0.0007. Further, the fold improvement over control in assay [18], in assay [19], in assay [26] and in assay [27] was 1 fold in each case. Further, the Selectivity for huAPRIL (KD BAFF/KD APRIL) in assay [19] was determined as 1420. Also, in assay [20], the IC50 (read off the curve) (NFkappaB luciferase signal of HEK293-huBCMA reporter cells stimulated with soluble huBAFF) was 2 nM. Moreover, the fold improvement KD vs control in [22] and in [23] was 1 fold in each case.

Usually Kd stands for a measure of binding affinity in units of concentration. Broadly, the EC50 is the concentration giving half of the maximal effect. For orientation: IC50 means the concentration needed to halve the response being measured. Low readings indicate inhibition by little substance, high ones a need for much substance.
